Data from patent publication US20230235054A1 (BIOATLA, published 2023).

How the values were obtained:
huNectin4-His [1] = molecular target: T1, huNectin4-His (human, UniProt Q96NY8 32-349); assay: SPR, huNectin4-His immobilized, pH 6.5; pH 6.5
T1 construct: Immobilized on the SPR chip; also called humanNectin4; human Nectin4; not shown: His tag
T1 sequence (looked up): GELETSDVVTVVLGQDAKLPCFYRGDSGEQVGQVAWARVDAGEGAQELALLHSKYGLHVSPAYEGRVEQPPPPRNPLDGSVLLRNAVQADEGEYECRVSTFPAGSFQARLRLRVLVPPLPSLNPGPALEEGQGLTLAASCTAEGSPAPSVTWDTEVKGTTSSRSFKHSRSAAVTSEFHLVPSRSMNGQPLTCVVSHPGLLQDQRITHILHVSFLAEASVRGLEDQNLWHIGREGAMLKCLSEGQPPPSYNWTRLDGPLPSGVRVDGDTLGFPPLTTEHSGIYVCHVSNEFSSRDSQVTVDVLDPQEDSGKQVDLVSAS
Protocol: (§1) Binding kinetics of anti-Nectin4 antibodies were measured by surface plasmon resonance using a SPR2/4 instrument (Sierra Sensors, Hamburg, Germany) and flat amine sensor chips. The SPR sensor contained four flow cells (FC1-FC4), each of which was addressed individually or in groups. huNectin4-His was immobilized in FC2, and cynoNectin4-mFc in FC4. No protein was immobilized in FC1 and FC3 which were used as control surfaces for FC2 and FC4, respectively.
(§2) All injections were done at a flow rate of 25 μL/min at 25° C. The sensor surface was activated with 1-ethyl-3-(3-dimethylaminopropyl)-carbodiimide (EDC) and N-hydroxysuccinimide (NHS) (200 mM/50 mM) for 480 seconds. HuNectin4-His (2 μg/mL in 10 mM NaAc, pH4.5) was injected for 480s and the surface was inactivated by injecting 1M ethanolamine-HCl for 480s. CynoNectin4 was immobilized using the same conditions as described for huNectin4-His, except that the cynoNectin4 was diluted into 10 mM NaAc buffer having pH 5.0. The control surface was activated and deactivated using the same conditions, but without injecting protein. PBST buffer (PBS pH 7.4 with 0.05% TWEEN20™) was used as running buffer for the surface preparation. The running solution was switched to PBST with 30 mM sodium bicarbonate with the pH adjusted as indicated in the figures before the analyte injections. The instrument was equilibrated with the running solution for one hour before the first analyte injection.
(§3) The off-rate was measured for 360s. The chip surface was regenerated after each cycle of interaction analysis by injecting 6 μL of 10 mM glycine (pH 2.0). Flow cells 1 and 3 without immobilized protein were used as control surfaces for reference subtraction.

huNectin4-His [2] = molecular target: T1, huNectin4-His; assay: SPR, huNectin4-His immobilized, pH 7.4; pH 7.4
Protocol: as §1, §2, §3

Kd (huNectin4-His [1]): 9.31 nM
koff (huNectin4-His [1]): 0.00574 s⁻¹
kon (huNectin4-His [1]): 617000 M⁻¹ s⁻¹
Kd (huNectin4-His [2]): 9.76 nM
koff (huNectin4-His [2]): 0.00478 s⁻¹
kon (huNectin4-His [2]): 490000 M⁻¹ s⁻¹
B1: BAP-143-00-02 (antibody, V domains shown)
VH: EVQLVESGGGLVQPGGSLRLSCAASGFTFSSYNMNWVRQAPGKGLEWVSYISSSSSTIYYADSVKGRFTISRDNAKNSLSLQMNSLRDEDTAVYYCARAYYYGMDVWGQGTTVTVSS
VL: DIQMTQSPSSVSASVGDRVTITCRASQGISGWLAWYQQKPGKAPKFLIYAASTLQSGVPSRFSGSGSGTDFTLTISSLQPEDFATYYCQQANSEPPTFGGGTKVEIK
notes: Used as a conjugate with a linker payload (CAB ADC)
